Data: patent US20090004190A1, “Rage Fusion Proteins And Methods Of Use” (priority 2006, published 2009)

Key:
S100b (S100) = target: T1, S100b (S100) (Homo sapiens, UniProt P04271); experiment: In vitro ligand binding (ELISA) to immobilized S100b; settings: ligand 5 micrograms per well; FIG. 7
T1 sequence (P04271 1-92): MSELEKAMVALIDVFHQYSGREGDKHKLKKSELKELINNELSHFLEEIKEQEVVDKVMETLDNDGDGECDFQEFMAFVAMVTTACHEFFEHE
Procedure: (§1) For example, the RAGE fusion protein may be used in a binding assay to identify potential RAGE ligands. In one example embodiment of such a binding assay, a known RAGE ligand may coated onto a solid substrate (e.g., Maxisorb plates) at a concentration of about 5 micrograms per well, where each well contains a total volume of about 100 microliters (μL). The plates may be incubated at 4° C. overnight to allow the ligand to absorb. Alternatively, shorter incubation periods at higher temperature (e.g., room temperature) may be used. […] The RAGE fusion protein bound to the immobilized ligand may be detected in a variety of ways. […] The bound complex may be detected by adding the alkaline phosphatase substrate, para-nitrophenylphosphate (PNPP), and measuring conversion of PNPP to para-nitrophenol (PNP) as an increase in absorbance at 405 nm. […] In the absence of ligand (i.e., coating with only BSA) there was no increase in absorbance. […] Binding was detected by the addition of an immunodetection complex containing a monoclonal mouse anti-human IgG1 diluted 1:11,000 to a final assay concentration (FAC) of 21 ng/100 μL, a biotinylated goat anti-mouse IgG diluted 1:500, to a FAC of […], and an avidin-linked alkaline phosphatase. […]

amphoterin (Ampho) = target: T2, amphoterin (Ampho) (Homo sapiens, UniProt P09429); experiment: In vitro ligand binding (ELISA) to immobilized amphoterin; settings: ligand 5 micrograms per well; FIG. 7
T2 sequence (P09429 1-215): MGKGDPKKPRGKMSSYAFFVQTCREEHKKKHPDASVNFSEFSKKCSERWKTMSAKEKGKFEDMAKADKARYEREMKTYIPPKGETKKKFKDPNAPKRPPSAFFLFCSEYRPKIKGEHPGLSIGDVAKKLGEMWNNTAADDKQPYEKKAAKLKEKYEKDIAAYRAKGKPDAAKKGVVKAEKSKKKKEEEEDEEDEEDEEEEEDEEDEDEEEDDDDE
Procedure: as §1

[1] = Pharmacokinetic profile of TTP-4000 after IV injection (plasma ELISA); type: in vivo; settings: monkeys, single IV bolus 5 mg/kg, after ligands saturated, FIG. 11
Procedure: Blood samples (approximately 1.0 mL) were collected at pre-dose (i.e., prior to injection of the TTP4000), or at 0.083, 0.25, 0.5, 2, 4, 8, 12, 24, 48, 72, 96, 120, 168, 240, 288, and 336 hours post dose into tubes containing (lithium heparin). Following collection, the tubes were placed on wet ice (maximum 30 minutes) until centrifugation under refrigeration (at 2 to 8° C.) at 1500×g for 15 minutes. Each harvested plasma sample was then stored frozen (−70° C.±10° C.) until assayed for RAGE polypeptide using an ELISA at various time-points following the injection, as described in Example 6.
Initially, 50 uL of the RAGE specific monoclonal antibody 1HB1011 at a concentration of 10 ug/mL in 1×PBS pH 7.3 is coated on plates via overnight incubation. When ready for use, plates are washed three times with 300 uL of 1× Imidazole-Tween wash buffer and blocked with 1% BSA. […] The samples are allowed to incubate at room temperature for one hour. After incubation, the plates are plates are washed three times. A Goat Anti-human IgG11 (Sigma A3312) […] conjugate in 1×PBS with 1% BSA is added and allowed to incubate at room temperature for 1 hour. The plates are washed three times. Color was elucidated with paranitrophenylphosphate.

Fc receptor = Fc receptor activation: TNF-α secretion from THP-1 cells; type: cell-based; settings: well precoated with 10 ug/well heat aggregated protein, 24 hours, FIG. 12
From the text: Fc stimulation results in TNF-α secretion.

- binding to immobilized S100b (absorbance at 405 nm) (S100b (S100)): specifically interact
- binding to immobilized amphoterin (absorbance at 405 nm) (amphoterin (Ampho)): specifically interact
B1: TTP-4000: four domain RAGE fusion protein: human RAGE V and C1 domains with interdomain linkers (to residue 251) fused to human IgG1 CH2 and CH3; SEQ ID NO: 34/56 (protein, listed as Homo sapiens)
chain: QNITARIGEPLVLKCKGAPKKPPQRLEWKLNTGRTEAWKVLSPQGGGPWDSVARVLPNGSLFLPAVGIQDEGIFRCQAMNRNGKETKSNYRVRVYQIPGKPEIVDSASELTAGVPNKVGTCVSEGSYPAGTLSWHLDGKPLVPNEKGVSVKEQTRRHPETGLFTLQSELMVTPARGGDPRPTFSCSFSPGLPRHRALRTAPIQPRVWEPVPLEEVQLVVEPEGGAVAPPSVFLFPPKPKDTLMISRTPEVTCVVVDVSHEDPEVKFNWYVDGVEVHNAKTKPREEQYNSTYRVVSVLTVLHQDWLNGKEYKCKVSNKALPAPIEKTISKAKGQPREPQVYTLPPSRDELTKNQVSLTCLVKGFYPSDIAVEWESNGQPENNYKTTPPVLDSDGSFFLYSKLTVDKSRWQQGNVFSCSVMHEALHNHYTQKSLSLSPGK
- terminal half-life [1]: greater than 300 hours
- TNF generated (Fc receptor): less than 2 ng/well
